# Assay results reported in patent publication US20060142195.
# T1: fibrin, P02671
# T1 chain 1: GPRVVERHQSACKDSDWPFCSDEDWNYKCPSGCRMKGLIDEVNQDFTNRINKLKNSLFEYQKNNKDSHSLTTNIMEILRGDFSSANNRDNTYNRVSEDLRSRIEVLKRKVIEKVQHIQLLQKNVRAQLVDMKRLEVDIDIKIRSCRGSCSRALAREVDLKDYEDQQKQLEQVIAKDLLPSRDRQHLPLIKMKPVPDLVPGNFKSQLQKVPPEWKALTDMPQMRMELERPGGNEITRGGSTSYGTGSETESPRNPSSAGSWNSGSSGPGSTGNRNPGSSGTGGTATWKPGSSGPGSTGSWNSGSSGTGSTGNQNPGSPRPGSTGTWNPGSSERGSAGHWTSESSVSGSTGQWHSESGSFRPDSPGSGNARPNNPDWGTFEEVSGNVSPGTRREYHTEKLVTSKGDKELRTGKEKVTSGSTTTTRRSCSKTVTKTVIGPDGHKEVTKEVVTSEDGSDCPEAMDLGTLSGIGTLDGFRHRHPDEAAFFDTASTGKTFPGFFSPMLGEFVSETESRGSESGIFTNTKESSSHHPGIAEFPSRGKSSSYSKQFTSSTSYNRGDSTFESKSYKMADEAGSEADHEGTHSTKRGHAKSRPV
# T1 chain 2: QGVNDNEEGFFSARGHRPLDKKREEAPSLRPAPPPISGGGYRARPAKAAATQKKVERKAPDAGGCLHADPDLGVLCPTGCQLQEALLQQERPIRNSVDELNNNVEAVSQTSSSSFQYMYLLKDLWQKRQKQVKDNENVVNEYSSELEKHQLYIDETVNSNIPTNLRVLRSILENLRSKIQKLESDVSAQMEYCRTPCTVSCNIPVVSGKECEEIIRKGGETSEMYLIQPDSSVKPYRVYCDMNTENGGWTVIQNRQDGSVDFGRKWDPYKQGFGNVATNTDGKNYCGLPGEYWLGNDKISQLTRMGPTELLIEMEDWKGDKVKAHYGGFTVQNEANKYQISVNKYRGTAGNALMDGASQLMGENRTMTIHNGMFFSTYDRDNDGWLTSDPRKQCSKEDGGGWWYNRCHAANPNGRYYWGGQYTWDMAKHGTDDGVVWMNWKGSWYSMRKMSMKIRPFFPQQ
# T1 chain 3: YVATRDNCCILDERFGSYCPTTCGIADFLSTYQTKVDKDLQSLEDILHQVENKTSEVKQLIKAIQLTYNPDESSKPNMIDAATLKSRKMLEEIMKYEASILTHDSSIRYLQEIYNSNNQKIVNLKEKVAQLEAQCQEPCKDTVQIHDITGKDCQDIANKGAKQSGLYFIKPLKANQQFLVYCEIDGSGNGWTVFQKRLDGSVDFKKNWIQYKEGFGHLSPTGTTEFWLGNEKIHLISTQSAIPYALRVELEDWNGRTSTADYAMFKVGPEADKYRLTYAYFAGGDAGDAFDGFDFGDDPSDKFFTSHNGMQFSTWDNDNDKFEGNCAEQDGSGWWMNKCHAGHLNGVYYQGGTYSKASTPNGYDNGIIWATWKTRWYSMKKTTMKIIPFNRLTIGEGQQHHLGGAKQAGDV
# B1: modified tissue plasminogen activator with an amino acid sequence according to SEQ ID No. 1 (protein)
# chain: AYGVACKDEITQMTYRRQESWLRPEVRSKRVEHCQCDRGQARCHTVPVKSCSEPRCFNGGTCQQALYFSDFVCQCPEGFAGKCCEIDTRATCYEDQGISYRGTWSTAESGAECTNWNSSALAQKPYSGRRPDAIRLGLGNHNYCRNPDRDSKPWCYVFKAGKYSSEFCSTPACSSTCGLRQYSQPQFHSTGGLFADIASHPWQAAIFAKHRRSPGERFLCGGILISSCWILSAAHCFQERFPPHHLTVILGRTYRVVPGEEEQKFEVEKYIVHKEFDDDTYDNDIALLQLKSDSSRCAQESSVVRTVCLPPADLQLPDWTECELSGYGKHEALSPFYSERLKEAHVRLYPSSRCTSQHLLNRTVTDNMLCAGDTRSGGPQANLHDACQGDSGGPLVCLNDGRMTLVGIISWGLGCGQKDVPGVYTKVTNYLDWIRDNMRP
# Target: T1, fibrin, P02671
protein,measurement,value
B1,fibrin specificity (semi quantitative tests),showed a increased fibrin specificity in comparison to the wild type t-PA
